The subject of one experiment is lymphoid cells. The experiment in a line: Thymocyte depletion of fetal thymic organ culture (FTOC). The class given is cell-based, mouse. The note with it: after 14 days, flow cytometric analysis. The source says: SPATIAL expression cannot be detected in thymocytes using RT-PCR on RNA obtained from highly purified CD45+ thymocytes prepared by flow cytometer sorting from normal mice. Actin and cyclophilin mRNA was readily detected using the same RNA samples. To examine SPATIAL expression in stromal cells, thymii from day 14 mouse fetuses were harvested and cultured in fetal thymic organ culture (FTOC). The FTOC was specifically depleted of thymocytes using 2-deoxyguanosine treatment 2-deoxyguanosine is a nucleotide analog that is toxic to thymocytes. […] These cultures can be re-colonized by stem cells and are fully capable of supporting thymopoiesis (Hare et al., Semin. Immunol., 11(1):3-12, 1999). Using RT-PCR, it was shown that SPATIAL is abundantly expressed in thymic stromal cells obtained from FTOC (Flomerfelt et al., Genes and Immunity, 1:391-401, 2000).
(Flow cytometry measures light scatter and fluorescence of single cells or particles in a stream.)

The next experiment deals with Hb12 cells. The experiment in a line: Bcl-2 expression assay, SPATIAL-EGFP transfected Bcl-2 expressing thymocyte cell line. Type of experiment: cell-based, mouse. Particulars: Bcl-2 expression, FIG. 17B. How it is done:
The mouse thymocyte cell line Wehi 7.2 and its variant Wbcl-2, which over expresses bcl-2, were maintained in DMEM supplemented with 10% heat-inactivated FBS, 2 mM glutamine, 100 U/ml penicillin, and 0.1 mg/ml streptomycin. Cells were grown at 37° C. in a humidified atmosphere with 5% CO2.
Transient transfections were performed using either lipids (Lipofectamine 2000 or FreeStyle 293 Expression System, each supplied by Invitrogen, Rockville, Md.) or calcium phosphate (Mammalian Transfection Kit; Stratagene, La Jolla, Calif.) or electroporation. Manufacturer instructions were followed for lipid and calcium phosphate transfections. For electroporation, the following procedure was used: Before transfection, Wehi cell and Wbcl-2 cells were counted and suspended in fresh complete DMEM without antibiotics at 5×10^5 cells/ml in a 15 cm dish. On the day of transfection, the cells were washed with PBS twice and were suspended in serum free DMEM at 6.25×10^6 cells/mL Aliquots of 800 μl cell suspension were transferred to a 4 mm electroporation cuvette and 10 μg of plasmid DNA solution was added. After 10 minutes incubation on ice, the cells were electroporated under the condition of 310 V, 725 ohms resistance, and 1050 μF capacitance. The transfected cells were incubated on ice for 10 minutes and suspended in complete DMEM in 10 cm dishes at the density of 7.5×10^4 viable cells/ml. […]

The target in another experiment is T1, GST-SPATIAL(S) (Mus musculus, UniProt Q7TSD4).
T1 construct: made in house
T1 sequence (Q7TSD4 with tags, fused parts or gaps isoform Q7TSD4-7 limits assumed): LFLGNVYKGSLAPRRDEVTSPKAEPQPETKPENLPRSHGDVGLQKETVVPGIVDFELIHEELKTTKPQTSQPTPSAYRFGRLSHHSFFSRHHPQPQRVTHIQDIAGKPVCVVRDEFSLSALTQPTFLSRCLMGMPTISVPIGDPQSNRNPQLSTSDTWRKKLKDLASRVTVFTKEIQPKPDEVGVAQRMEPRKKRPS
As to the kind of experiment: GST pulldown assay with GST-SPATIAL short isoform. The class given is binding. Particulars: 35S-methionine labeled in vitro translated protein. How it is done: (§1) Eighteen cDNA clones identified in the yeast two-hybrid system were tested in an in vitro glutathione-S-transferase (GST) pulldown assay, as described in Ausubel et al., Current Protocols in Molecular Biology, Greene Publishing Associates, updated November 2003, Chapter 20, Analysis of Protein Interactions, Unit 20.2, Affinity Purification of Proteins Binding to GST Fusion Proteins.
(§2) Briefly, a GST-SPATIAL fusion construct was produced by cloning SPATIAL cDNA(s) into pGEx5X1 expression vector using standard molecular cloning techniques. GST or GST-SPATIAL fusion protein were expressed in 1-1000 ml bacterial cultures grown for 3-4 hours until OD600 reached 0.5. Then, plasmid expression was induced for 1.5-4 hours by the addition of ITPG to a final concentration of 0.11 mM. GST or GST-fusion proteins were purified using glutathione-Sepharose beads as described in Ausubel et al., Current Protocols in Molecular Biology, Greene Publishing Associates, updated November 2003, Chapter 20, Analysis of Protein Interactions, Unit 20.2, Affinity Purification of Proteins Binding to GST Fusion Proteins.
(§3) A coupled in vitro transcription and translation system (Promega) was used according to the manufacturer's instructions to produce radiolabeled protein from cDNAs to be tested. Radiolabeled proteins were mixed with either purified GST or GST-SPATIAL. Then, GST-containing protein complexes were purified by centrifugation from the reaction mixtures using glutathione-coated Sepharose beads. Bound proteins were eluted from the beads with SDS-PAGE loading buffer heated to 72-85° C., separated on polyacrylamide gels, and visualized by autoradiography. Specific interactions between GST-SPATIAL and in vitro translated proteins were indicated by the presence of a radiolabeled in vitro translated protein in the GST-SPATIAL-containing samples, but not in the GST-alone samples.
(§4) GST pulldown assays were performed as described in Example 9 using GST-SPATIAL(L) and GST-SPATIAL(S) and each of the Uba3 mutants described in this example.

For a further experiment, the target named is T2, GST-SPATIAL(L) (Mus musculus, UniProt Q7TSD4).
T2 construct: made in house
T2 sequence (Q7TSD4 with tags, fused parts or gaps isoform Q7TSD4-6 limits assumed): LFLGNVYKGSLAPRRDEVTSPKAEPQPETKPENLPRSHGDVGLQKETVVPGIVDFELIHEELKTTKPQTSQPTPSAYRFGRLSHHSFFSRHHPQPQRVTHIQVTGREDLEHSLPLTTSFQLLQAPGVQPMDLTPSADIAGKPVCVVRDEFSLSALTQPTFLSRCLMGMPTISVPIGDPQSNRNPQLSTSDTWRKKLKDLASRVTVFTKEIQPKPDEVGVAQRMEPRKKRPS
The experiment in a line: GST pulldown assay with GST-SPATIAL long isoform. The class given is binding. Particulars: 35S-methionine labeled in vitro translated protein. The method, then: as §1, §2, §3, §4

For experiment [1], the target named is T3, Uba3 deletion mutant Delta364-912 (mouse, UniProt Q8C878 22-462, 35S-methionine labeled).
T3 construct: Amino acids 109-291 are deleted (PstI fragment removed); also called PstI digest
As to the kind of experiment: GST pulldown of 35S-labelled in vitro translated Uba3 mutant. The method, then: as §3, §4

Take `Nc1nc2c(ncn2[C@H]2C[C@H](O)[C@@H](CO)O2)c(=O)[nH]1` [2-deoxyguanosine]: in the experiment with lymphoid cells, the lymphoid cells depleted result is reported as “greater than 98%”.

Regarding “Bcl-2: human Bcl-2 gene expressed in Hb12 cells, inhibits apoptosis”, the “reversal of growth suppressive effect of SPATIAL-EGFP transfection” value in the experiment with Hb12 cells was “ineffective to reverse the growth suppressive effect”.

Consider “Delta364-912: Uba3 deletion mutant, amino acid deletion 109-291 (PstI digest)”, for which the “interaction with GST-SPATIAL(S)” value with GST-SPATIAL(S) was “does not interact”. Also, the “interaction with GST-SPATIAL(L)” value in the experiment with GST-SPATIAL(L) was “does not interact”.

B1: Delta24-646: Uba3 deletion mutant, amino acid deletion 1-202 (protein)
chain: TLELYPPQVNFPMCTIASMPRLPEHCIEYVRMLQWPKEQPFGDGVPLDGDDPEHIQWIFQKSIERASQYNIRGVTYRLTQGVVKRIIPAVASTNAVIAAVCATEVFKIATSAYIPLNNYLVFNDVDGLYTYTFEAERKENCPACSQLPQNIQFSPSAKLQEVLDYLTNSASLQMKSPAITATLEGKNRTLYLQSVTSIEERTRPNLSKTLKELGLVDGQELAVADVTTPQTVLFKLHFT
Consider B1, for which the “interaction with GST-SPATIAL(S)” value with GST-SPATIAL(S) is “interact”. The “interaction with GST-SPATIAL(L)” value in the experiment with GST-SPATIAL(L) is given as “interact”.

B2: Delta941-1365: Uba3 deletion mutant, amino acid deletion 301-441 (protein)
chain: MAVDGGCGDTGDWEGRWNHVKKFLERSGPFTHPDFEPSTESLQFLLDTCKVLVIGAGGLGCELLKNLALSGFRQIHVIDMDTIDVSNLNRQFLFRPKDVGRPKAEVAAEFLNDRVPNCNVVPHFNKIQDFNDTFYRQFHIIVCGLDSIIARRWINGMLISLLNYEDGVLDPSSIVPLIDGGTEGFKGNARVILPGMTACIECTLELYPPQVNFPMCTIASMPRLPEHCIEYVRMLQWPKEQPFGDGVPLDGDDPEHIQWIFQKSIERASQYNIRGVTYRLTQGVVKRIIPAVASTNAVIA
Consider B2, for which the “interaction with GST-SPATIAL(S)” value with GST-SPATIAL(S) is listed as “interact”. The “interaction with GST-SPATIAL(L)” value with GST-SPATIAL(L) is on record as “interact”.

B3: GST-SPATIAL short isoform fusion protein (other)
chain: T1 sequence (Q7TSD4 with tags, fused parts or gaps isoform Q7TSD4-7 limits assumed)
notes: SPATIAL cDNA cloned into pGEx5X1, expressed in bacteria and held on glutathione-Sepharose beads; not shown: glutathione-S-transferase (GST) encoded by the pGEx5X1 expression vector
B3: the binding result in experiment [1] is given as “no binding”.

B4: GST-SPATIAL long isoform fusion protein (other)
chain: T2 sequence (Q7TSD4 with tags, fused parts or gaps isoform Q7TSD4-6 limits assumed)
notes: as for B3
For B4, in experiment [1], the binding result is “no binding”.

These data come from patent US20070248589A1 (GOVERNMENT OF THE UNITED STATES OF AMERICA AS REPRESENTED …, published 2007).
